Where no end group is shown, it is not given here. [ ]: non-standard residue; d: D form. pS = N[C@@H](COP(=O)(O)O)C(=O)O
B1: TEX264 peptide (residues 269-278) with S272 phosphorylation (p-S272) (peptide)
peptide: SGS[pS]FEELDL
notes: also called p-Ser272; source: synthetic peptide, bought: GenScript; passed over Superdex peptide
B2: phosphomimetic TEX264^(S271, 272E) peptide (2SE-LIR) (peptide, UniProt Q9Y6I9 269-278, looked up)
peptide: SGEEFEELDL
notes: also called 2E-LIR; source: synthetic peptide, bought: GenScript; passed over Superdex peptide
B3: phosphomimetic TEX264^(S269E, S271E, S272E) peptide (3SE-LIR) (peptide, UniProt Q9Y6I9 269-278, looked up)
peptide: EGEEFEELDL
notes: also called 3E-LIR; source: synthetic peptide, bought: GenScript; passed over Superdex peptide
B4: phosphomimetic TEX264^(S271D, S272D) peptide (2SD-LIR) (peptide, UniProt Q9Y6I9 269-278, looked up)
peptide: SGDDFEELDL
notes: also called 2D-LIR; source: synthetic peptide, bought: GenScript; passed over Superdex peptide
B5: phosphomimetic TEX264^(S269D, S271D, S272D) peptide (3SD-LIR) (peptide, UniProt Q9Y6I9 269-278, looked up)
peptide: DGDDFEELDL
notes: also called 3D-LIR; source: synthetic peptide, bought: GenScript; passed over Superdex peptide
B6: TEX264 LIR peptide (residues 266-278) with S266 phosphorylation (p-S266) (peptide)
peptide: [pS]GASGSSFEELDL
notes: source: synthetic peptide, bought: GenScript; passed over Superdex peptide

Experiments:
[1] = molecular target: Human LC3B (residues 1-120) (human, UniProt Q9GZQ8 1-120); assay: ITC; Microcal iTC200, 25°C; TEX264 peptides 0.5 mM in the syringe, LC3B or GABARAP in the cell at 10-times lower concentration; single-site binding model; conditions: both partners purified
[2] = molecular target: T1, Human GABARAP (residues 1-116) (human, UniProt O95166 1-116); assay: as above; conditions: both partners purified
T1 construct: GABARAP, human, residues 1-116; source: prepared as described previously (Mochida et al., 2020), purified
T1 sequence (O95166 1-116): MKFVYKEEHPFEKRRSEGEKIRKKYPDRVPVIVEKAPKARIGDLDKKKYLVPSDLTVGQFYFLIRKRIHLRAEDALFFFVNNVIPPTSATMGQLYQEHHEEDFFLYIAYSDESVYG

Binder	fold enhancement of affinity over the unphosphorylated peptide [1] [fold]	fold enhancement of affinity over the unphosphorylated peptide [2] [fold]	binding result [1]	fold enhancement of affinity over the unmodified peptide [2] [fold]
B1	37	23		
B2			binds	~20
B3			binds	~20
B4			binds	~20
B5			binds	~20
B6	1.8	6.5		
